Test results published in paper PMC5064372.

Tests used:
[1] = target: catalytically inactive mouse neutrophil elastase (Ser195Ala) with a C-terminal cysteine tag, fluorescently labelled (mouse); assay: MST; AAT serially diluted (titrated), 5 nM fluorescently labelled inactive NE, in 7.5% plasma pool from individuals with high FEV1 (>=80%, n = 8); storage buffer (20 mM Na2HPO4, 300 mM NaCl pH 7.4) with Tween 20, 22 °C, 2 h incubation; global fit of four measurements
[2] = target: catalytically inactive mouse neutrophil elastase (Ser195Ala) with a C-terminal cysteine tag, fluorescently labelled (mouse); assay: MST; AAT serially diluted (titrated), 5 nM fluorescently labelled inactive NE, in 7.5% plasma pool from individuals with low FEV1 (<=50%, n = 12); storage buffer (20 mM Na2HPO4, 300 mM NaCl pH 7.4) with Tween 20, 22 °C, 2 h incubation; global fit of four measurements

“recombinant Z-variant alpha-1-antitrypsin (Glu342Lys) with three stabilizing mutations (Met374Ile, Ser381Ala, Lys387Arg) on the M1(Ala213) background (from UniProt P01009 25-418) (natural protein)” showed a Kd [1] of 500 nM and a Kd [2] of 1300 nM.
